We go through one substance from patent US20100254992A1.

For the assay, the target named is HuMCP-1-His6 Mutant-6 (66D → 66K) (human) (UniProt P13500). The assay can be described thus: Biacore, CNTO 888 captured, MCP-1-His6 in solution. For orientation: Surface plasmon resonance follows binding to a sensor surface in real time, without labels.
HuMCP-1-His6 Mutant-6 (66D → 66K) (human), sequence (P13500 other isoform, or with tags, fused parts or gaps mutant, form in doubt): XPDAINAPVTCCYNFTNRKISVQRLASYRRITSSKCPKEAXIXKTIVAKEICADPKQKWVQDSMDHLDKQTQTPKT

Broadly, the Kd is the equilibrium constant for the complex coming apart. Read a low Kd as a tighter complex. One may read the koff as the rate constant with which the complex falls apart. Low values mean slow dissociation, high ones fast dissociation. By kon is commonly meant the second-order rate constant of association. Higher therefore signals fast association. The substance CNTO 888 (antibody) returned a Kd of 0.037 nM, a koff of 0.000186 s⁻¹ and a kon of 5.09e+06 M⁻¹ s⁻¹.
